In patent US20060270837A1 (published 2006):
Where a chain is given by its changes, count along the chain named.

T1: TR4-Fc fusion protein (human, UniProt O00220 109-240)
T1 construct: also called TR4:Fc receptor; not shown: Fc region
T1 chain: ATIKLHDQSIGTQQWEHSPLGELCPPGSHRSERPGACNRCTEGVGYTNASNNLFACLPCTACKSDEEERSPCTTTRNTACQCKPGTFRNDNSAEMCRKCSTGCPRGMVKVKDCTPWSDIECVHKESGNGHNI

T2: TR10 (human, UniProt Q9UBN6 56-211, limits assumed)
T2 construct: The construct coated in the specificity phage ELISA is not described; also called TRAIL-R4; DcR2
T2 sequence: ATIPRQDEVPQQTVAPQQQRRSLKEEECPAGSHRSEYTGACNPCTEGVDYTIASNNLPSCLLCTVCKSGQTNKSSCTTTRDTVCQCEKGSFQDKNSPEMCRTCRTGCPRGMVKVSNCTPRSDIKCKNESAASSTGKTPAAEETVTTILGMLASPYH

B1: IgG1 antibody comprising the VH and VL domains of the T1014A04 scFv (antibody, V domains shown)
VH: EVQLVQSGADVKRPGASVKVSCKISGDSFNAYFIHWVRQAPGQGLEWMGWFNPDSGTADSAQKFHGRVTMTRDTSSSTAFLELSRLRSDDTAVYYCVRQHRGNTFAPWGRGTMVTVSS
VL: QSVLTQPPSASGSPGQSVTISCTGTTSDVGGYNYVSWYQQHPGKAPKLMIYGVNQRPSGVPDRFSGSKSGNTASLTVSGLQAEDEADYYCSSYAGSNNWVFGGGTKLTVLG
notes: Whole IgG1; also called IgG1 format of T1014A04
B2: IgG1 antibody comprising the VH and VL domains of the T1014G03 scFv (antibody, V domains shown)
VH: EVQLVQSGAEVKMPGASVKLSCRVSGDTFTAYFIHWVRQAPGQGLEWMGWFNPISGTAGSAEKFRGRVAMTRDTSISTAYMELNRLTFDDTAVYYCARQHRGNTFDPWGQGTLVTVSS
VL: QSALTQPASVSGSPGQSITISCTGTSSDIGAYKYVSWYQQHPGKAPKLVIYEVSNRPSGVSSRFSGSKSGQTASLTISGLQADDEADYYCNSYQGYNTWVFGGGTKVTVLG
notes: Whole IgG1
B3: IgG1 antibody comprising the VH and VL domains of the T1014G04 scFv (antibody, V domains shown)
VH: B1 VH with N30T, M113L
VL: QPVLTQPPSASGSPGQSVTISCTGTSSDVGSYEYVSWYQQHPGKAPRLMISEVNKRPSGVPNRFSGSKSGNTASLTVSGLQADDEADYYCSSYAGSNNWVFGGGTKVTVLG
notes: Whole IgG1; also called T14G04
B4: scFv T1014G03 (scFv)
scFv: EVQLVQSGAEVKMPGASVKLSCRVSGDTFTAYFIHWVRQAPGQGLEWMGWFNPISGTAGSAEKFRGRVAMTRDTSISTAYMELNRLTFDDTAVYYCARQHRGNTFDPWGQGTLVTVSSGGGGSGGGGSGGGGSAQSALTQPASVSGSPGQSITISCTGTSSDIGAYKYVSWYQQHPGKAPKLVIYEVSNRPSGVSSRFSGSKSGQTASLTISGLQADDEADYYCNSYQGYNTWVFGGGTKVTVLG
B5: scFv T1014A04 (scFv)
scFv: EVQLVQSGADVKRPGASVKVSCKISGDSFNAYFIHWVRQAPGQGLEWMGWFNPDSGTADSAQKFHGRVTMTRDTSSSTAFLELSRLRSDDTAVYYCVRQHRGNTFAPWGRGTMVTVSSGGGGSGGGGSGGGGSAQSVLTQPPSASGSPGQSVTISCTGTTSDVGGYNYVSWYQQHPGKAPKLMIYGVNQRPSGVPDRFSGSKSGNTASLTVSGLQAEDEADYYCSSYAGSNNWVFGGGTKLTVLG
B6: scFv T1014G04 (scFv)
scFv: EVQLVQSGADVKRPGASVKVSCKISGDSFTAYFIHWVRQAPGQGLEWMGWFNPDSGTADSAQKFHGRVTMTRDTSSSTAFLELSRLRSDDTAVYYCVRQHRGNTFAPWGRGTLVTVSSGGGGSGGGGSGGGGSAQPVLTQPPSASGSPGQSVTISCTGTSSDVGSYEYVSWYQQHPGKAPRLMISEVNKRPSGVPNRFSGSKSGNTASLTVSGLQADDEADYYCSSYAGSNNWVFGGGTKVTVLG
B7: scFv T1014F08 (scFv)
scFv: EVQLVQSGAEVKKPGASVKLSCRVSGDTFTAYFIHWVRQAPGQGPEWMGWFNPISGTAGSAARFRGRVAMTRDTSISTAYMELNRLTFDDTAVYYCARQHRGNTFDPWGKGTLVTVSSGGGGSGGGGSGGGGSALPVLTQPPSASGSPGQSVTISCTGTSSDVGGYKYVSWYQQHPGKAPKLMIYEVSMRPSGVPDRFSGSKSGNTASLTVSGLQAEDEADYYCASYAGSNNWVFGGGTKLTVLG
B8: scFv T1014B11 (scFv)
scFv: EVQLVQSGAEVKKPGASVKVSCKISGDSFTAYFIHWLRQAPGEGLEWMGWFNPISGTAGSPQKFHGRVAMTRDTSISTAYMELTRLASDDTAIYYCARQHHSNTFDPWGQGTLVTVSSGGGGSGGGGSGGGGSAQSALTQPASVSGSPGQSITISCTGTNSDVGGYNYVSWYQQHPGKAPKLMIYEVNNRPSGVSNRFSGSKSGNTASLTISGLQADDEADYYCSSYTTSNTWVFGGGTKLTVLG

How the values were obtained:
TR4-Fc fusion protein = molecular target: T1, TR4-Fc fusion protein; assay: SPR (BIAcore 2000), TR4:Fc amine-coupled on CM5 chip, IgG1 as analyte 0.75-65 nM, TR2:Fc control cell, double reference subtraction, 1:1 Langmuir fit, 25 C
Protocol: The optimal pH for this coupling was analyzed using preconcentration experiments ranging from pH 4-7 and was determined to be pH 4.0 for both the TR4 and the TR2 receptor. Amine coupling was used to covalently bind each receptor (fc) to the dextran matrix on the CM5 sensor chip. The immobilization experiment was performed using the manual injection mode. The entire immobilization experiment was performed at 5 μL/min. A 3-minute injection of EDC/NHS (1:1) was applied to each flow cell to active esters. A target level of ˜200RU was set as the goal for all each flow cell. Fc-fusion receptors, TR4 and TR2 at 5 μg/mL, were immobilized onto individual flow cells of a sensor chip. The amount applied varied from 8-14 μL. A 3-minute ethanolamine injection completed the immobilization experiment by inactivating the esters.
The kinetics cycles were performed as follows: The flow rate for the entire cycle was 25 μL/minute with the flow path including both the control (TR2) and experimental (TR4) flow cell at all times. A 1-minute buffer injection was applied to stabilize the baseline. The purified antibody (IgG1 antibody comprising the VH and VL domains of each of the T1014A04, T1014G03, T1014F08, and T14G04 scFvs) was diluted from 10 μg/mL (65 nM) to 0.115 μg/mL (0.75 nM) in running buffer and tested in duplicate. Each concentration was in contact with the control (TR2) and the experimental (TR4) flow cell during a 4-minute association and a 10-minute dissociation phase. Regeneration was performed using 25 mM NaOH from 5-12 μL depending on the sample concentration.
A double-reference subtraction was performed, which refers to the control flow cell subtraction for every cycle, in addition to a buffer cycle subtraction. The 1:1 Langmuir model was used for all evaluation fitting.

TR7 = molecular target: T3, TR7 (human, UniProt O14763 52-184); assay: specificity phage ELISA, antigen coated at 1 ug/ml, anti-M13-HRP detection
T3 construct: The construct coated in the specificity phage ELISA is not described; also called TRAIL-R2; DR5
Protocol: (§1) Flexible 96-well plates (Falcon) were coated overnight at 4° C. with each antigen (1 μg/ml). All antigens were coated in PBS. After coating, the solutions were removed from the wells, and the plates were blocked for 1 hour at room temperature in MPBS. The plates were washed 3 times with PBS and then 50 μl of pre-blocked phage was added to each well. The plates were incubated at room temperature for 1 hour and then washed with 3 changes of PBST followed by 3 changes of PBS.
(§2) To each well, 50 μl of an anti-M13-HRP conjugate (Pharmacia) at a 1 in 5000 dilution in MPBS was added and the plates incubated at room temperature for 1 hour. Each plate was washed three times with PBST followed by three times with PBS.
(§3) Fifty μl of TMB substrate was then added to each well, and incubated at room temperature for 30 minutes or until colour development. The reaction was stopped by the addition of 25 μl of 0.5 M H₂SO₄. The signal generated was measured by reading the absorbance at 450 nm (A₄₅₀) using a microtitre plate reader (Bio-Rad 3550).

TR10 = molecular target: T2, TR10; assay: as above
Protocol: as §1, §2, §3

BLyS = BLyS (human, UniProt Q9Y275 134-285); assay: as above
Protocol: as §1, §2, §3

Sequence of BLyS (Q9Y275 134-285 limits assumed): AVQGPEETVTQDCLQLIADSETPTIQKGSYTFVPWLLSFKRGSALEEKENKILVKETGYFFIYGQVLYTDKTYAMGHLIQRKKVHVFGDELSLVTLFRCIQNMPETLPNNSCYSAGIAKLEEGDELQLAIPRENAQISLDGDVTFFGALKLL
T3 sequence (O14763 52-184 limits assumed): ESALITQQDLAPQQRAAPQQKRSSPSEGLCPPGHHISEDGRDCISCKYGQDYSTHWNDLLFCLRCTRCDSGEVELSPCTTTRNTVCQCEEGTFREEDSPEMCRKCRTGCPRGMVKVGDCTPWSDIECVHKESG

Binder | Kd (TR4-Fc fusion protein) [pM] | binding result (TR7) | binding result (TR10) | binding result (BLyS)
B1 | 468 | – | – | –
B2 | 554 | – | – | –
B3 | 194 | – | – | –
B4 | – | no binding | no binding | no binding
B5 | – | no binding | no binding | no binding
B6 | – | no binding | no binding | no binding
B7 | – | no binding | no binding | no binding
B8 | – | no binding | no binding | no binding
